Where no end group is shown, it is not given here. His tag = polyhistidine tag from vector pDEST-HisMBP; MBP = not defined here

Test [1] has as its target T1, MBP-MAP4K4-CNH (biotinylated, immobilised) (human, UniProt P0AEX9 27-392 = MBP; O95819 926-1213, limits assumed, biotinylated (site not given)).
T1 construct: 45 ug/ml on streptavidin biosensors; also called CNH domain of MAP4K4; biotinylated MAP4K4-CNH
The experiment in a line: BLI (Octet-RED), single concentration 1 uM, local 1:1 fit, immobilised biotinylated MAP4K4-CNH. Here is the method: (§1) Data were acquired with the Data Acquisition software version 6.2 and all steps/dilutions were performed in baseline buffer (PBS pH 8.0) at a rotation rate of 1000 rpm.
For orientation: BLI is a label-free optical method that tracks binding on a fibre tip over time.

In test [2] the target is T1, MBP-MAP4K4-CNH (biotinylated, …). Kind of test: BLI (Octet-RED), titration 100-1000 nM, global 1:1 fit, immobilised biotinylated MAP4K4-CNH. On the procedure: as §1
Test [3] shares this target. Kind of test: BLI (Octet-RED), titration, compared with MBP-RAP2A in the same system. On the procedure:
as §1

B1: MBP-25C3 (Phylomer 25C3 expressed as a His-MBP tagged fusion) (peptide)
chain: {His tag-MBP}-LGAAGPTHYDHLDCAR
modifications: reading uncertain; also: linker between MBP and peptide not given here
notes: Purified as monomeric protein; also called 25C3 fusion peptide; not shown: His tag of vector pDEST-HisMBP
Regarding B1, in test [1], the equilibrium dissociation constant (Kd) worked out at 23.5 nM and the koff amounted to 4.4e-05 s⁻¹. In test [2], the Kd was determined as 28 nM and the koff stood at 0.0001 s⁻¹. In addition, in test [3], the “fold lower binding affinity than RAP2A” value is 5 fold.

What is called Kd is a measure of binding affinity in units of concentration. Read a high Kd as a looser complex. Broadly, the koff is the rate constant with which the complex falls apart.

The record behind these values is patent US20190204338A1 (PHYLOGICA, published 2019).
